Assay results published in patent publication US20240010747A1, “ANTI-MRP4 (ENCODED BY ABCC4 GENE) ANTIBODIES AND USES THEREOF” (Kenjockety Biotechnology, Inc., priority 2020, published 2024).
Positions count from the first letter of the chain named. Blank lines part the entries; values can stand above or below the molecule they belong to.

Experiments:
cynomolgus ABCC4 = assay: Flow cytometry (FACS) binding to C6 cells stably transfected to express cynomolgus ABCC4 (different experiment, different C6.cC4 cell line, Table 4); design: key to Cynomolgus ABCC4 binding: Negative (−)=Rmax (MFI) below background level; Positive (+)=MFI>3× background level; conditions: different C6.cC4 cell line, C6 cells stably transfected to express cynomolgus ABCC4, FACS; Table 4
Method: (§1) Binding titration of recombinant antibodies to ABCC4 transfectants was performed by serial dilution of antibodies from about 666 nM. Diluted antibody in flow cytometry buffer was incubated with cells on ice for 30 min. After 2 washes with flow cytometry buffer, bound antibody was detected with PE-labeled F(ab′)2 fragment goat anti-human IgG (Jackson ImmunoResearch) diluted 1:200 in flow cytometry buffer and incubated with cells for 20 min on ice. After 2 washes with flow cytometry buffer fluorescence was measured on an Attune N×T flow cytometer. Data were analyzed with GraphPad Prism 8.0 software to determine EC50's.
(§2) Human embryonic kidney HEK 293T cells and murine C6 (ATCC CCL-107) were transfected with human or cynomolgus ABCC4 cDNA with C-terminal fused FLAG tag in a pMONO-hygro vector with Lipofectamine 3000 (Invitrogen #L3000001). The cells were treated with 0.2 mg/ml and 0.5 mg/ml hygromycin respectively for about 2 weeks while cultivated in DMEM and 10% FBS with 0.2 mg/ml hygromycin and 0.5 mg/ml hygromycin, respectively. The cells were washed with PBS, and stained with […] of anti-FLAG-PE after fixing and permeablization. Clones expressing ABCC4 were single-cell sorted into 200 μl DMEM with 10% FBS using a BD Aria FACS machine and cultivated in 96 well plates using standard techniques in an incubator at 37° C. and 5% CO 2. Two weeks later clones expressing high levels of ABCC4 were screened and amplified.
(§3) Antibody binding to cells was evaluated by flow cytometry. Murine C6 cells stably transfected to express human or cynomolgus ABCC4 were washed once in flow cytometry buffer (PBS+2% FBS+0.02% sodium azide), resuspended at 2×10^6 cells/mL in flow cytometry buffer, and dispensed into 96-well microtiter plates at 0.1 mL/well. Recombinant antibodies were added to cells at 5 ug/mL for initial binding confirmation, or serially diluted from 100 ug/mL in flow cytometry buffer. After incubating cells on ice for 30 min, cells were washed twice with flow cytometry buffer. Bound antibody was detected with PE-labeled F(ab′)2 fragment goat anti-human IgG (Jackson ImmunoResearch) and evaluated on an Attune N×T flow cytometer. EC50 is calculated to be the concentration of antibody that gives half maximal response.
(§4) In a different experiment, using a different C6.cC4 cell line, detecting the binding of anti-ABCC4 antibodies to C6 cells stably transfected to express human ABCC4 measured by FACS and to C6 cells stably transfected to express cynomolgus ABCC4 measured by FACS, the results set forth in Table 4 were obtained. Negative (−)=Rmax (MFI) below background level. Positive (+)=MFI>3× background level.

human ABCC4 = biological target: T1, human ABCC4 (Homo sapiens, UniProt O15439); assay: Flow cytometry (FACS) binding to C6 cells stably transfected to express human ABCC4 (different experiment, Table 4); conditions: C6 cells stably transfected to express human ABCC4, FACS; different experiment, Table 4
T1 construct: expressed in transfected cells
T1 sequence (O15439 1-1325): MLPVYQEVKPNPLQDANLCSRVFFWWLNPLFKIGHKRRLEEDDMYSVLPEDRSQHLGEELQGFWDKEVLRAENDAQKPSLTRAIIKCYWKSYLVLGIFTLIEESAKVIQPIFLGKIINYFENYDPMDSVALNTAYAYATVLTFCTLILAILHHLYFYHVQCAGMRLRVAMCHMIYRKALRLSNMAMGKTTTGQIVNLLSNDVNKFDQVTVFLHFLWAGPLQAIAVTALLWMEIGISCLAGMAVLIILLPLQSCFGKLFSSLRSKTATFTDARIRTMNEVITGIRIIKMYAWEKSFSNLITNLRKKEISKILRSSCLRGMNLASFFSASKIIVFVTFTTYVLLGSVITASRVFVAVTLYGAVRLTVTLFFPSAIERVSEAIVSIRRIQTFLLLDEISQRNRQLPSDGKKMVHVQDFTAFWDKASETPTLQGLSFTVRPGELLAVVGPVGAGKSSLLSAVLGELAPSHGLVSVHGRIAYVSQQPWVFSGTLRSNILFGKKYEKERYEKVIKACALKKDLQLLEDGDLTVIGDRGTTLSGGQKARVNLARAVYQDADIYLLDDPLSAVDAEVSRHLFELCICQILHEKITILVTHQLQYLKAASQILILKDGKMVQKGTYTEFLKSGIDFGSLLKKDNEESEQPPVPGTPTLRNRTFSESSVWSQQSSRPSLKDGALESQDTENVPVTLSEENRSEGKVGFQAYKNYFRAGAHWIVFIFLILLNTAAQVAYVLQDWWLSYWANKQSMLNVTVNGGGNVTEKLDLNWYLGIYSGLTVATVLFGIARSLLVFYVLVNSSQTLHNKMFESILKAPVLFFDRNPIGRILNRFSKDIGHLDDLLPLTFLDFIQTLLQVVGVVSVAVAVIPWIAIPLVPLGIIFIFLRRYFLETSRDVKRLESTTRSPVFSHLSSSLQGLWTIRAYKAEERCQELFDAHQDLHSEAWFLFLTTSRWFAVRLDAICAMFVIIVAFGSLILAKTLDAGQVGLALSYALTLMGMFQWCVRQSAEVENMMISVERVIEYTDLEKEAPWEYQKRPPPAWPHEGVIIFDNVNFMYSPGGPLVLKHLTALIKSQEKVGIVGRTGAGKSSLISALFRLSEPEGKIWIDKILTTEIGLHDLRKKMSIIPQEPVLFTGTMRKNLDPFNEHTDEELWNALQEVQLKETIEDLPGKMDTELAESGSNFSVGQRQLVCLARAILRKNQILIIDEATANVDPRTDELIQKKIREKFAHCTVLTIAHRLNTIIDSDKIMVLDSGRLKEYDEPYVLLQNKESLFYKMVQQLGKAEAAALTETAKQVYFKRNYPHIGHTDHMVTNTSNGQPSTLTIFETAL
Method: as §1, §2, §3, §4

B1: C4.1071: anti-ABCC4 antibody raised in rats; VH SEQ ID NO: 23, VL SEQ ID NO: 145 (antibody, V domains shown)
VH: EVQWKESGPGLVQPSQTLSLTCTVSGFSLTSYGVSWVRQPPGKGLEWIGAIWSGGGTDYNSALKSRLSISRDTSKSQVLLKMNSLQTEDTAMYFCAGNHYFDYWGQGTMVTVSS
VL: AIQVTQSPNSLSASLGDRVTLTCRASQDINNKMAWYQQKPGEVPQLLIYSASTLQSGTPSRFSGSGSGTDFSFTISHLQSEDFATYYCLQGYSLYTFGAGTKLELKRADAAP
- Cynomolgus ABCC4 binding (cynomolgus ABCC4): −
- Human ABCC4 binding (human ABCC4): + (Positive (+)=MFI>3× background level)

B3: C4.1006: anti-ABCC4 antibody raised in rats; VH SEQ ID NO: 19, VL SEQ ID NO: 139 (antibody, V domains shown)
VH: EVQLTESGPGLVQPSQTLSLTCTVSGFSLTSYDVHWVRQPPGKGLEWMGRMQNGGSTDYNSALKSRLSISRDTSKSQVFLKMNSVQTEDTAMYFCVRSFIIRGYWGQGASVTVSS
VL: DIVMTQGALPNPVPSGESASITCQSSKSLLYSDGKTYLNWYLQRPGQSPQLLIYWMSIRASGVSDRFSGSGSGTDFTLKISRVEAEDVGVYYCQQFLEFPYTFGAGTKLEIK
- Cynomolgus ABCC4 binding (cynomolgus ABCC4): −
- Human ABCC4 binding (human ABCC4): + (Positive (+)=MFI>3× background level)

B7: C4.1047A: anti-ABCC4 antibody raised in rats; VH SEQ ID NO: 20, VL SEQ ID NO: 140 (antibody, V domains shown)
VH: EVQLMESGPGLVQPSQTLSLTCTVSGLSLISNNINWVRQPPGKGLEWIGAISGGGSAFYNSALKSRLSFSRDTSKSQVFLKMNSLQTEDTAIYFCARGGSEDPDYFDYWGQGVMVTVSS
VL: ETVMTQTPSSLAVSAGETVTINCRSSQSLLYSGNQKNYLAWYQQKPGQSPKLLIYWSSTRQYGVPDRFIGSGSGTDFTLTISSVQAEDLAIYYCQQYYDTPLTFGSGTKLELK
- Cynomolgus ABCC4 binding (cynomolgus ABCC4): −
- Human ABCC4 binding (human ABCC4): + (Positive (+)=MFI>3× background level)

B8: C4.1052: anti-ABCC4 antibody raised in rats; VH SEQ ID NO: 20, VL SEQ ID NO: 141 (antibody, V domains shown)
VH: B7 VH
VL: B7 VL with E1D, T2I, T7S, R24K, Y62S, I69M, L112I
- Cynomolgus ABCC4 binding (cynomolgus ABCC4): −
- Human ABCC4 binding (human ABCC4): + (Positive (+)=MFI>3× background level)

B10: C4.994: anti-ABCC4 antibody raised in rats; VH SEQ ID NO: 17, VL SEQ ID NO: 137 (antibody, V domains shown)
VH: QIQLVQSGPELKKPGESVKISCKASGYTFTDYAIHWVTQAPGKGLKWMGWISTYTGKTTYTDDFKGRFVFSLDASASTANLQINNLKNEDTAAYFCARGGLQWFDYWGQGTLVTVSS
VL: EILLTQSPTAMAASPGEKVTITCRASFRVSYMHWYQQKPGASPKPWIYDTSKLASGVPTRFSGSGSGTSYSFTISSMETEDTATYYCQQWTSNSRTFGGGTKLVLK
- Cynomolgus ABCC4 binding (cynomolgus ABCC4): −
- Human ABCC4 binding (human ABCC4): + (Positive (+)=MFI>3× background level)

Second part, led by results:

- Human ABCC4 binding (human ABCC4): + (Positive (+)=MFI>3× background level)
B2: C4.1138: anti-ABCC4 antibody raised in rats; VH SEQ ID NO: 29, VL SEQ ID NO: 149 (antibody, V domains shown)
VH: EVQLKESGPGLVKPSETLSLTCTVSGFSLTSYHVSWVRQPPGKGLEWMGVIWGDGNTAYNSALKSRLSINRDTSKSQVFLKMNSLQTEDTATYYCARHPYYSIPYWGQGASVTVSS
VL: DIVLTQSPTTMAAFPGEKVTITCRASSSVSYMYWYQQKSGASPKSWIYETSKLASGVPDRFSGSGSGTSYSFTISSMETEDAATYYCHQWSSIPLTFGSGTKLEIK
- Cynomolgus ABCC4 binding (cynomolgus ABCC4): −

- Human ABCC4 binding (human ABCC4): + (Positive (+)=MFI>3× background level)
B4: C4.1145: anti-ABCC4 antibody raised in rats; VH SEQ ID NO: 32, VL SEQ ID NO: 151 (antibody, V domains shown)
VH: EVKLVESGGGLVQPGRSLKLSCAASGFTFSNYDMAWVRQAPTKGLEWVASIIPSGGTSYYRDSVKGRFTVSRDNAKSTLYLQMDSLRSEDTATYYCARLTTSHYYVMDAWGQGASVTVSS
VL: DIWMTQSPTSMSISVGDRVTMNCKASQNVGSNVDWYQQKTGQSPKLLIYKASNRYTGVPDRFTGSGSGTDFTFTISNMQAEDLAVYYCMQSNSYPWTFGGGTKLELK
- Cynomolgus ABCC4 binding (cynomolgus ABCC4): −

- Human ABCC4 binding (human ABCC4): + (Positive (+)=MFI>3× background level)
B5: C4.1146: anti-ABCC4 antibody raised in rats; VH SEQ ID NO: 32, VL SEQ ID NO: 152 (antibody, V domains shown)
VH: B4 VH
VL: DIWMTKSPSSMSASLGDRVTITCQASQDIGNNLIWFQQKPGKSPRRMIYYATNLANGVPSRFSGSRSGSDYSLTIISLESEDMADYHCLQYKQYPYTFGAGTKLEIK
- Cynomolgus ABCC4 binding (cynomolgus ABCC4): −

- Human ABCC4 binding (human ABCC4): + (Positive (+)=MFI>3× background level)
B6: C4.1078: anti-ABCC4 antibody raised in rats; VH SEQ ID NO: 26, VL SEQ ID NO: 147 (antibody, V domains shown)
VH: EVQLVESGGGLVQPGGSLRLSCAASGFTFTDFYMSWIRQPPGKTPEWLGVIRNKAYVYTTEYNPSVKGRFTISRDNTQNILYLQMNTLRVEDTAIYYCARNWEGFASWGQGTLVTVSS
VL: DVVMTQTPPSLSVAIGQSVSISCKSSQSLVYSDGKTYLHWLLENSGRSPKRLIYRVSNLDSGVPDRFSGTGSQKDFTLKISRVEAQDLGVYYCAQTTHFPWTFGGGTKLELK
- Cynomolgus ABCC4 binding (cynomolgus ABCC4): −

- Human ABCC4 binding (human ABCC4): + (Positive (+)=MFI>3× background level)
B9: C4.1155: anti-ABCC4 antibody raised in rats; VH SEQ ID NO: 35, VL SEQ ID NO: 154 (antibody, V domains shown)
VH: EVKLLESGGGLVQPGGSLRLSCATSGFSFTDFYMSWIRQPLGKAPEWLGVIRNRAIGFRTEYNPSVKGRFTISRDNTQNILYLQMNTLRTEDTAIYYCARNNLGFDYWGQGASVTVSS
VL: TPPSLSVAIGQSVSISCKSSQSLVYSDGKTYLHWLLQISGRSPERLIYQVSNLDSGVPDRFSGTGSQKDFTLKISRVEAKDLGFYYCAQTTHFPYTFGAGTKLELK
- Cynomolgus ABCC4 binding (cynomolgus ABCC4): −
